The assay deals with mouse Rae1–Nup98^GLEBS complex (tags removed) (mouse) (UniProt Q8C570). Put plainly: SEC.

Results on 1 substance are retold here after article PMC7604486.

Take “MHV-68 ORF10 (wild type, full-length, no tag) (natural protein)”: the stoichiometry N is 1.
